Results taken from article PMC3268225 (Biochemical Journal, 2011).
Blank lines part the entries; values can stand above or below the binder they belong to.

What was measured:
GST–eEF2K[1–402]–His6 = biological target: T1, GST–eEF2K[1–402]–His6 (human, UniProt O00418 1-402); experiment: ELISA
T1 sequence: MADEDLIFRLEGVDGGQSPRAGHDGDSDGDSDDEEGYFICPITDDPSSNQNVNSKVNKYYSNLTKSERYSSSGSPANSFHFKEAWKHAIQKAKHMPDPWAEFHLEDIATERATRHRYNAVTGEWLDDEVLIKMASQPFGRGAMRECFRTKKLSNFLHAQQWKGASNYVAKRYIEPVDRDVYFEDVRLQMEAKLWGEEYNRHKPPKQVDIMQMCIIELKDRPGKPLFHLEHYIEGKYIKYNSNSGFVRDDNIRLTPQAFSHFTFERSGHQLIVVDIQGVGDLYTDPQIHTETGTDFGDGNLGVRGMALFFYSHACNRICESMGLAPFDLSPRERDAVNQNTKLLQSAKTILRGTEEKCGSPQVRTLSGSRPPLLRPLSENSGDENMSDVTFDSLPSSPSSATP

His6–Zb–eEF2K[48–336] = biological target: T2, His6–Zb–eEF2K[48–336] (human, UniProt O00418 48-336); experiment: pull-down
T2 sequence: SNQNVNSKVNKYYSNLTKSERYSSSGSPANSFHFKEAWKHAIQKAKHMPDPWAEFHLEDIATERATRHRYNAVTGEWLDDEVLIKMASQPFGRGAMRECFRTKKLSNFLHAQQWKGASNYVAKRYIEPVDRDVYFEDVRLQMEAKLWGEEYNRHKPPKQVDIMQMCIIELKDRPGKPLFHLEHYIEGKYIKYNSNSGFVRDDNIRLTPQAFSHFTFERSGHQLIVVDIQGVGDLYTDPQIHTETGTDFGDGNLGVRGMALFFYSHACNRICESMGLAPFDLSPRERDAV

eEF2K[48–336] = biological target: T3, eEF2K[48–336] (human, UniProt O00418 48-336); experiment: SEC
T3 sequence: T2 sequence

binding result (GST–eEF2K[1–402]–His6): binds
B1: GST–eEF2K[478–725] (domain or fragment)
chain: SGRVCVEKWNLLNSSRLHLPRASAVALEVQRLNALDLEKKIGKSILGKVHLAMVRYHEGGRFCEKGEEWDQESAVFHLEHAANLGELEAIVGLGLMYSQLPHHILADVSLKETEENKTKGFDYLLKAAEAGDRQSMILVARAFDSGQNLSPDRCQDWLEALHWYNTALEMTDCDEGGEYDGMQDEPRYMMLAREAEMLFTGGYGLEKDPQRSGDLYTQAAEAAMEAMKGRLANQYYQKAEEAWAQMEE

binding result (His6–Zb–eEF2K[48–336]): binds
B2: His6–eEF2K[490–725] (domain or fragment)
chain: NSSRLHLPRASAVALEVQRLNALDLEKKIGKSILGKVHLAMVRYHEGGRFCEKGEEWDQESAVFHLEHAANLGELEAIVGLGLMYSQLPHHILADVSLKETEENKTKGFDYLLKAAEAGDRQSMILVARAFDSGQNLSPDRCQDWLEALHWYNTALEMTDCDEGGEYDGMQDEPRYMMLAREAEMLFTGGYGLEKDPQRSGDLYTQAAEAAMEAMKGRLANQYYQKAEEAWAQMEE

binding result (eEF2K[48–336]): binds
B3: eEF2K[490–725] (domain or fragment)
chain: B2 chain
